Assay results reported in patent US20260250398A1 (published 2026).

Key:
Test in all cases: BLI; avid
ANT 99 = biological target: ANT 99
ANT 80 = biological target: ANT 80
ANT 98 = biological target: ANT 98

Kd (ANT 99): 0.4 nM
Kd (ANT 80): 0.05 nM
Kd (ANT 98): 2 nM
B1: FZD5 (receptor)
chain: ASKAPVCQEITVPMCRGIGYNLTHMPNQFNHDTQDEAGLEVHQFWPLVEIQCSPDLRFFLCSMYTPICLPDYHKPLPPCRSVCERAKAGCSPLMRQYGFAWPERMSCDRLPVLGRDAEVLCMDYNRSEATTAPPRPFPAKP
